Laboratory results from US9957308B2, “Method for detecting bilirubin using a fluorescent protein” (RIKEN, priority 2013, dated 2018).

Columns and labels:
[1] = Detection of unconjugated bilirubin in human serum by apo UnaG fluorescence; details: apo UnaG added to 200-fold diluted human serum, room temperature, 527 nm
Protocol: Blood (5 mL) was collected in a vacuum sealed blood collection tube (Neo-Tube, NIPRO) from a vein of the arm using a needle of 23G (Terumo Corporation) and a 5-mL cylinder (Terumo Corporation). The collected blood was shielded from light and was left to stand at room temperature for 30 min and was then centrifuged at a rotation speed of 3,000 rpm for 20 min (KUBOTA K-80) to collect about 2.5 mL of serum. The collected serum was cooled with ice while being shielded from light and was promptly subjected to measurement of bilirubin.
Apo UnaG was added to the serum diluted with PBS by 200-fold so as to give a final concentration of 0.5 μM, and 200 μL of the mixture was added to each well of a 96-well microplate (black, non-binding, Greiner Bio-One). Measurement of fluorescence was started immediately after the addition of samples to the plate. The fluorescence intensity was measured at room temperature at every 10 min for 1 hr at a fluorescence wavelength of 527 nm (excitation wavelength: 497 nm) using EnSpire (trademark) multi-mode plate reader (PerkinElmer Co., Ltd.). Each serum was measured using three wells, and the serum not mixed with apo UnaG protein was also measured as background. The net fluorescence intensity was determined by subtracting the intensity level of the background from the intensity level of the serum mixed with apo UnaG protein. […]

[2] = target: T1, apo UnaG protein (Anguilla japonica, UniProt P0DM59); assay: Reconstruction of apo UnaG protein using bilirubin or bilirubin analog, fluorescence intensity; type: binding, Japanese eel (Anguilla japonica); details: 0.5 μM apo UnaG, ligand 0.125-2.0 μM, 30 min room temperature, excitation 497 nm / emission 527 nm
T1 construct: GST (N, cleaved yes); made in house; host or cells: Escherichia coli BL21 (DE3)
Protocol: Bilirubin or a bilirubin analog, biliverdin (Toronto Research Chemicals), urobilin (MP Biomedicals), or ditaurobilirubin (Frontier Scientific), was diluted with PBS such that the final concentration was 0.125 μM, 0.25 μM, 0.5 μM, 1.0 μM, or 2.0 μM and was mixed with 0.5 μM apo UnaG protein. The mixture was left to stand at room temperature for 30 min. Subsequently, 200 μL of the mixture was added to each well of a 96 well microplate (Greiner Bio-One) and was subjected to measurement of the fluorescence intensity at a wavelength of 527 nm with excitation light having a wavelength of 497 nm using EnSpire multi-mode plate reader (PerkinElmer Co., Ltd.).

[3] = Evaluation of aggregability of protein by dynamic light scattering particle diameter; type: physicochemical; details: wild-type 10 mg/mL, R82EK84E mutant 8.5 mg/mL
Protocol: Protein solutions (each 20 μL) of wild-type UnaG protein (10 mg/mL) and R82EK84E mutated UnaG protein (8.5 mg/mL) were each supplied to Microtrac particle size analyzer MT3000II (Nikkiso Co., Ltd.), and the particle diameters were measured by a dynamic light scattering. The aggregability was evaluated by plotting frequency against particle diameter.

[4] = tested on: Escherichia coli cells; assay: Expression of recombinant UnaG protein in Escherichia coli, fluorescence observation; type: cell-based; details: blue light, UV transilluminator
Description: A DNA fragment including the sequence of full-length UnaG gene prepared above was ligated to the restriction enzyme sites, BamHI and EcoRI, of Escherichia coli expression vector […] (GE Healthcare) including a GST-tag sequence that can express the GST-fused protein in Escherichia coli and transformed into Escherichia coli strain DH5α for subcloning. Thus, a UnaG (apo form) expression vector (pGEX-2T-UnaG) for Escherichia coli was constructed.
The constructed expression vector (pGEX-2T-UnaG) was transformed into Escherichia coli strain BL21 (DE3). The transformant was cultured on a plate of an LB solid medium to obtain colonies. The resulting colonies were inoculated in 40 mL of an LB liquid medium and were cultured overnight at 37° C. Here, a glycerol stock of the resulting Escherichia coli solution was produced, and this glycerol stock was used as the recombinant (vector) for Escherichia coli expression in the experiments described below. The LB medium was scaled up to 400 mL using the culture solution, followed by culturing at 37° C. for 1 hr (A600≈1.0). […]
FIG. 1 includes diagrams showing expression of recombinant UnaG protein in Escherichia coli and mammalian cells. […] The diagram (c) includes a differential interference image and a fluorescence image by observation of mammalian cell HEK293T expressing recombinant UnaG protein under a fluorescence microscope. […]

B1: UnaG: fluorescent polypeptide including the amino acid sequence of SEQ ID NO: 1, originally isolated from Japanese eel; fluoresces in the presence of bilirubin (protein, listed as Anguilla japonica)
chain: MVEKFVGTWKIADSHNFGEYLKAIGAPKELSDGGDATTPTLYISQKDGDKMTVKIENGPPTFLDTQVKFKLGEEFDEFPSDRRKGVKSVVNLVGEKLVYVQKWDGKETTYVREIKDGKLVVTLTMGDVVAVRSYRRATE
time stable fluorescence lasts [1]: ≥ 1 h | time until stable fluorescence is generated [1]: about 10 min | fluorescence of UnaG on addition of ligand (specificity) [2]: specific to bilirubin | particle diameter distribution (peaks) [3]: two peaks of different particle diameter distribution ranges | fluorescence of expressed protein in cells [4]: did not emit fluorescence
